Data from US20190338048A1.
Read-outs that look alike come from different tables or passages of the source.

Assays:
Experiment in all cases: LCCA, SPR
[1] = target: CAT-2200 lambda light chain E124Q_T131R
[2] = target: Pertuzumab kappa light chain V133L_S176D_T178E
[3] = target: Pertuzumab kappa light chain V133L_S176D_T178E; remark: listed apart in the source
[4] = target: CAT-2200 lambda light chain K129T_V133D
[5] = target: CAT-2200 lambda light chain K129T_V133D; remark: listed apart in the source

H2L2:H2L1 normalized median ratio [1] [%] | H2L2:H2L1 normalized median scalar value ln(r1/f1) [2] | H2L2:H2L1 normalized median scalar value ln(r1/f1) [3] | H1L1:H1L2 normalized median scalar value ln(r1/f1) [4] | H1L1:H1L2 normalized median scalar value ln(r1/f1) [5] | Substance
9 | 2.3 | 2.15 | – | – | Pertuzumab Fab heavy chain V177I_S188K
– | – | – | 1.55 | 0.9 | CAT-2200 Fab heavy chain L143K
